Changes are numbered by the printed parent chain.
B1: P1AH1205 (antibody, V domains shown)
VH: KVQLVESGGGLVQPGGSLRLSCAASGFKWEHYAMSWVRQAPGKGLEWVGSISPRGDHKYYNTKFIDRFTISRDNDKNTLYLQMNSLRAEDTAVYYCARDWDYFDRWGQGTLVTVSS
VL: AIQMTQSPSSLSASVGDRVTITCQSQFWLSNYLAWYQQKPGKAPKLLIFDGDLPYERPSRFSGSGSHDEYTLTISSLQPEDFATYYCQQYREEPYTFGQGTKLEIK
B2: P1AG9426 (antibody, V domains shown)
VH: B1 VH with K1Q, W29Y, E30D, H31V, S50E, H57S, D75E, D101E, R105N
VL: B1 VL with S25A, Q26S, F27Y, L53I, R57I, D68E, E93T
B3: P1AG9391 (antibody, V domains shown)
VH: B1 VH with K1Q, W29Y, E30D, H31V, S50E, H57S, D75E, D101E, R105N
VL: B1 VL with S25A, Q26S, F27Y, L53I, Y55W, R57I, D68E, E92D, E93T
B4: P1AG9376 (antibody, V domains shown)
VH: B1 VH
VL: B1 VL
B5: P1AH1199 (antibody, V domains shown)
VH: B1 VH with K1Q, W29Y, E30D, H31V, S50E, H57S, D75E, D101E, R105N
VL: B1 VL with S25A, Q26S, F27Y, L53I, Y55W, R57I, D68E, E92D, E93T
B6: P1AG9372 (antibody, V domains shown)
VH: EVQLVESGGGLVQPGGSLRLSCAASGFRFDIYAMSWVRQAPGKGLEWVGEISPDGRTKYYNTKFIDRFTISRDNEKNTLYLQMNSLRAEDTAVYYCARDWEYFDNWGQGTLVTVSS
VL: B1 VL
B7: P1AG9420 (antibody, V domains shown)
VH: B1 VH with K1R, K28R, W29Y, E30D, D56N, N74D, D75E, R105H
VL: B1 VL with S25A, Q26S, F27Y, L53I, R57I, D68E, E93T
B8: P1AH1205 full Fab (antibody)
chain 1: KVQLVESGGGLVQPGGSLRLSCAASGFKWEHYAMSWVRQAPGKGLEWVGSISPRGDHKYYNTKFIDRFTISRDNDKNTLYLQMNSLRAEDTAVYYCARDWDYFDRWGQGTLVTVSSASTKGPSVFPLAPSSKSTSGGTAALGCLVKDYFPEPVTVSWNSGALTSGVHTFPAVLQSSGLYSLSSVVTVPSSSLGTQTYICNVNHKPSNTKVDKKVEPKSCD
chain 2: AIQMTQSPSSLSASVGDRVTITCQSQFWLSNYLAWYQQKPGKAPKLLIFDGDLPYERPSRFSGSGSHDEYTLTISSLQPEDFATYYCQQYREEPYTFGQGTKLEIKRTVAAPSVFIFPPSDEQLKSGTASVVCLLNNFYPREAKVQWKVDNALQSGNSQESVTEQDSKDSTYSLSSTLTLSKADYEKHKVYACEVTHQGLSSPVTKSFNRGEC
B9: P1AH1199 full Fab (antibody)
chain 1: B8 chain 1 with K1Q, W29Y, E30D, H31V, S50E, H57S, D75E, D101E, R105N
chain 2: B8 chain 2 with S25A, Q26S, F27Y, L53I, Y55W, R57I, D68E, E92D, E93T
B10: P1AG9391 full IgG (antibody)
chain 1: QVQLVESGGGLVQPGGSLRLSCAASGFKYDVYAMSWVRQAPGKGLEWVGEISPRGDSKYYNTKFIDRFTISRDNEKNTLYLQMNSLRAEDTAVYYCARDWEYFDNWGQGTLVTVSSASTKGPSVFPLAPSSKSTSGGTAALGCLVKDYFPEPVTVSWNSGALTSGVHTFPAVLQSSGLYSLSSVVTVPSSSLGTQTYICNVNHKPSNTKVDKKVEPKSCDKTHTCPPCPAPEAAGGPSVFLFPPKPKDTLMASRTPEVTCVVVDVSHEDPEVKFNWYVDGVEVHNAKTKPREEQYNSTYRVVSVLTVLAQDWLNGKEYKCKVSNKALGAPIEKTISKAKGQPREPQVYTLPPSRDELTKNQVSLTCLVKGFYPSDIAVEWESNGQPENNYKTTPPVLDSDGSFFLYSKLTVDKSRWQQGNVFSCSVMHEALHNAYTQKSLSLSP
chain 2: B8 chain 2 with S25A, Q26S, F27Y, L53I, Y55W, R57I, D68E, E92D, E93T
B11: P1AG9372 full IgG (antibody)
chain 1: B10 chain 1 with Q1E, K28R, Y29F, V31I, R54D, D56R, S57T
chain 2: B8 chain 2
B12: P1AG9376 full IgG (antibody)
chain 1: B10 chain 1 with Q1K, Y29W, D30E, V31H, E50S, S57H, E75D, E101D, N105R
chain 2: B8 chain 2
B13: P1AG9426 full IgG (antibody)
chain 1: B10 chain 1
chain 2: B8 chain 2 with S25A, Q26S, F27Y, L53I, R57I, D68E, E93T

Target: T1, human C3bBb (Bb from FB D279G/K350N/M458I) (human)
T1 sequence (P01024 23-1663, chain 1 of 2): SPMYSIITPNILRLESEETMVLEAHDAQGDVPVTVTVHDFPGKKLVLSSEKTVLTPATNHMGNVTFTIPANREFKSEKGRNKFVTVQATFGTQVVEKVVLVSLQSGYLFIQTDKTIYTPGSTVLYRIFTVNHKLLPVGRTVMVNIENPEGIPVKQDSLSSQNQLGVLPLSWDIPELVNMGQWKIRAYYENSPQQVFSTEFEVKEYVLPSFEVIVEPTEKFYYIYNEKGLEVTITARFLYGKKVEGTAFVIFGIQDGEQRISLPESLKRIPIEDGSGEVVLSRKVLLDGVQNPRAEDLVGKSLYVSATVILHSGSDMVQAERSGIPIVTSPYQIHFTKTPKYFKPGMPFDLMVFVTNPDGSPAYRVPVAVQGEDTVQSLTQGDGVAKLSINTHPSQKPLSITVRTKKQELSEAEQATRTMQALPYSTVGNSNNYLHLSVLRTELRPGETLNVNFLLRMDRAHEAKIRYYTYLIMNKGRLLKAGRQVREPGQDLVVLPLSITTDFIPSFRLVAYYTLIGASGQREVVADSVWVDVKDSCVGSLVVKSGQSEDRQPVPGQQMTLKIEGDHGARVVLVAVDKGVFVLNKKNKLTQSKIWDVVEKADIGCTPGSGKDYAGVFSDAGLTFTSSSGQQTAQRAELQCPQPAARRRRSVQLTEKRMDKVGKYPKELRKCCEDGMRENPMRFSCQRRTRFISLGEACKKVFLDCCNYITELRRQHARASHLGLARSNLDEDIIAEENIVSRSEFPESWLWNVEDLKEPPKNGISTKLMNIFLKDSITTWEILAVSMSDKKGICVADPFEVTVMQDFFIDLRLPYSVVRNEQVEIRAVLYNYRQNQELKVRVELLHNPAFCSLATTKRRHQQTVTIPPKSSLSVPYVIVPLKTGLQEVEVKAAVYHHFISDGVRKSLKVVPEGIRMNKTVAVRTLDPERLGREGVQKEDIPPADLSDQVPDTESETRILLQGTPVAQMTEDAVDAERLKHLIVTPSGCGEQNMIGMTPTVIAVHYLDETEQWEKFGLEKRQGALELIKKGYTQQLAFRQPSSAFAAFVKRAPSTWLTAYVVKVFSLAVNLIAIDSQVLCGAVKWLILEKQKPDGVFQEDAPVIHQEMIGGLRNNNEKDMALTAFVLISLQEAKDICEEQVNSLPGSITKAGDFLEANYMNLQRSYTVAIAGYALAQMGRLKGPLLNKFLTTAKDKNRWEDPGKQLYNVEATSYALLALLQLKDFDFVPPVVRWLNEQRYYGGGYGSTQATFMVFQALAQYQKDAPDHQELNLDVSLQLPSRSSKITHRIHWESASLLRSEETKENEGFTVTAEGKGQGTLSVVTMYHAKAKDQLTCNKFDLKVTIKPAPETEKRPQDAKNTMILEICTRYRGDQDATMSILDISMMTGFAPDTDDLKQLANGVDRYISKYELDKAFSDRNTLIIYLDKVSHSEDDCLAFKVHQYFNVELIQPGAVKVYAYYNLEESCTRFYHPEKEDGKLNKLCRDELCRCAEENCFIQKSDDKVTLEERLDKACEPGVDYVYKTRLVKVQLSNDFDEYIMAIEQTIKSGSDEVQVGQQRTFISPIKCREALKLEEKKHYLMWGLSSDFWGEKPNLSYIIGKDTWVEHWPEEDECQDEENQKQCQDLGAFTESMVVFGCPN
T1 sequence (P00751 260-764 D279G/K350N/M458I, chain 2 of 2, further chain): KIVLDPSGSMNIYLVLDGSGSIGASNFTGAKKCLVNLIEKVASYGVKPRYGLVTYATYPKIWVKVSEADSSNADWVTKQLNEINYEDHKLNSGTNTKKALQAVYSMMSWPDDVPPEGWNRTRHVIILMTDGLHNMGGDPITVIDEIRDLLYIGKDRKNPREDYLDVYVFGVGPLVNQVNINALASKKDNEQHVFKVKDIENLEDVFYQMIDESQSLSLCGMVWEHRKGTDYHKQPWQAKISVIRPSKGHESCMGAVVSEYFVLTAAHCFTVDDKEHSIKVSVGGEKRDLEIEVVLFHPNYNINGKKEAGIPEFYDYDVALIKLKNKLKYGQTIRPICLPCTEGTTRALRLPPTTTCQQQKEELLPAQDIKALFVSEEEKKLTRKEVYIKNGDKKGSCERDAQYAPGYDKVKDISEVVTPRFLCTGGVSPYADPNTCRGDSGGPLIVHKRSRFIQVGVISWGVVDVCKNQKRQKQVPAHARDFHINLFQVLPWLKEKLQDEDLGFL
Experiment: SPR, 25C

Which Kd does the source give for B1 here?
Its Kd is 0.016 nM.

B2 was tested. Which Kd did it give?
The Kd was under 0.001 nM.

With B3 as the binder, how does the Kd read?
Its Kd is under 0.001 nM.

For B4, which Kd is on record?
The Kd was under 0.001 nM.

For B5, which Kd is on record?
Its Kd is 0.03 nM.

For B6, which Kd is on record?
Its Kd is under 0.001 nM.

B7 was tested. Which Kd did it give?
Its Kd is under 0.001 nM.

Target: scFcRn (human, UniProt P55899)
Sequence (P55899 24-297, chain 1 of 2): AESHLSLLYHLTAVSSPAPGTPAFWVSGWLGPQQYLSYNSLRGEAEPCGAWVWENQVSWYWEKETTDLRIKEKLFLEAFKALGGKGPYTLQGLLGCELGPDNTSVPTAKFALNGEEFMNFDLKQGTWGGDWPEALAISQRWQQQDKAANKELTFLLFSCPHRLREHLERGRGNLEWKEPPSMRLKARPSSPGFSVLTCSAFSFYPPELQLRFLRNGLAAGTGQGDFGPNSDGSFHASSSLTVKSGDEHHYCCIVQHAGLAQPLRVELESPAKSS
Sequence (chain, as listed by the source, chain 2 of 2): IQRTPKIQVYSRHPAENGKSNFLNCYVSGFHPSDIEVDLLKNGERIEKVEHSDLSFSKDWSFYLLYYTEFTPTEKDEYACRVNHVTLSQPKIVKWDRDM
Experiment: SPR, pH 6.0, 25C

Does B8 bind?
Result: no binding

Does B9 bind?
Result: no binding

Does B10 bind?
Result: no binding

Does B11 bind?
Result: no binding

Does B12 bind?
Result: no binding

Does B13 bind?
Result: no binding

Target: T1, human C3bBb (Bb from FB …)
Experiment: SPR, 37C

B1 was tested. Which Kd did it give?
The Kd was 0.095 nM.

How did the Kd turn out when B2 was run?
Its Kd is 0.014 nM.

B3 was tested. Which Kd did it give?
The Kd was 0.0016 nM.

With B4 as the binder, how does the Kd read?
Its Kd is under 0.001 nM.

Which Kd does the source give for B5 here?
Its Kd is 0.2 nM.

B6 was tested. Which Kd did it give?
The Kd was 0.0116 nM.

Which Kd does the source give for B7 here?
The Kd was 0.011 nM.

— patent US20260308278 (published 2026)
